Test [1] concerns the target Pt-Get3a wild type, co-expressed with His-tagged TA protein (Phaeodactylum tricornutum). The experiment in a line: SAXS; HPLC with online size exclusion column, beamline BL23A1 (NSRRC), proteins ~5 mg/mL; P2 symmetry for the dimer, p222 for the Pt-Get3a/TA complex. Background: In gel filtration, larger molecules generally elute earlier.
Test [2] has the same target. The test can be described thus: SEC; Pt-Get3a/TA complex co-expressed and co-purified by Ni-NTA, then Superdex-200; ~100 mM NaCl and, as a control, 500 mM NaCl; fractions on SDS-PAGE.
The target of test [3] is Pt-Get3a (full-length, amino acids 1–349), purified, His-tag cleaved (Phaeodactylum tricornutum). The experiment in a line: SEC; purified Pt-Get3a (after TEV cleavage of the 6His-tag) or its mutants alone; near physiological saline, ~100 mM NaCl; tetramer-dimer equilibrium.
The target is the same in test [4]. The experiment in a line: SAXS; HPLC with online size exclusion column, beamline BL23A1 (NSRRC), proteins ~5 mg/mL; P2 symmetry for the dimer, p222 for the Pt-Get3a/TA complex.
The target is the same in test [5]. The test can be described thus: SEC; purified Pt-Get3a alone; NaCl increased to 500 mM; peak at ~78 mL.
The target of test [6] is Pt-Get3a L283D_I290D, purified (Phaeodactylum tricornutum). The experiment in a line: SEC; purified Pt-Get3a (after TEV cleavage of the 6His-tag) or its mutants alone; near physiological saline, ~100 mM NaCl; tetramer-dimer equilibrium.

Where “and” joins values, the source holds several entries; their conditions need not be identical. Identical values can stand only once.

Broadly, the stoichiometry N is the number of molecules, sites or subunits per partner or assembly. Turning to “Pt-Get3a wild type, co-expressed with His-tagged TA protein (natural protein)”, the stoichiometry N in test [1] is 4; in test [2], 4 and 2.

Turning to “Pt-Get3a (full-length, amino acids 1–349), purified, His-tag cleaved (natural protein)”, the stoichiometry N in test [3] came out at 4; in test [4], 2; in test [5], 2.

Turning to “Pt-Get3a L283D_I290D, purified (natural protein)”, in test [6], the stoichiometry N worked out at 2.

The values above are taken from article PMC11170914, “A distinct dimer configuration of a diatom Get3 forming a tetrameric complex with its tail-anchored membrane cargo” (BMC Biology, 2024).
